Among the data in paper PMC11257983 (2024) are ratio to parent values, retold here.

To fix the notation:
B1: Flag-CNK^2–549 [Drosophila] / Myc-MEK [Drosophila] (parent)
chain 1: MSKNKLNLVLPPVNTEATVAAATVAPTPPFKTPSGTDTHSLLGKPKTSIDALTETLEGLDMGDTERKRIKMFLSQKEKIGELSDEDLEKLGELGSGNGGVVMKVRHTHTHLIMARKLIHLEVKPAIKKQILRELKVLHECNFPHIVGFYGAFYSDGEISICMEYMDGGSLDLILKRAGRIPESILGRITLAVLKGLSYLRDNHAIIHRDVKPSNILVNSSGEIKICDFGVSGQLIDSMANSFVGTRSYMSPERLQGTHYSVQSDIWSLGLSLVEMAIGMYPIPPPNTATLESIFADNAEESGQPTDEPRAMAIFELLDYIVNEPPPKLEHKIFSTEFKDFVDICLKKQPDERADLKTLLSHPWIRKAELEEVDISGWVCKTMDLPPSTPKRNTSPN
chain 2: AYINIAEWTPDQVTDWIKGLDESMKGYLYEFSKQEIGGRALLNIRPYELENLGMLRIGHQEIVLEAVENLRNFHYHLKNDNLQFMALHVATAAKNLHRELARNHAESTKIDTRILHDITRTIATLKPLVGSLERTPFRKQEMYREYCGNVLKCGLELATIAHRDRFALQPVPAIRQSAERLENLANFVIQDISDPMVLQPASLNLVTLKKRESELGFNIESSYNGIHRVTDIKYNSPAHNSGKIEDGDEIVQINYQTVVGWQHRTVLEHLREALPDVVLTVKKRPKHTKMFGQIYMQPYRLPSKKRNMAARWAAQMPSPRAAFLTLDTEQLATGGTGSAVPDPSKSLSSEKREVLTKANPVSSASDSDSSCSDIPTPTDPKLAAREIRLYYPKPRALLQRRNTICGCEYLSLKNSDLVVPSWHERKPGIGSPTNCDPGSPSIRDKSISFGYGLEMAARPTTCIGIAGDTSTDKARRMFHEARKLKQLTEDSQREFLVDRYKPGVSKVVRFDAKEDYVMKNEKFICNVENTILETFEPIPFADEGDEDA

The first test covers variants of B1. Description: GST pull-down, immunoblot quantification. To be noted: with Myc-MEK [Drosophila], S2 cells, Flag-CNK2–549, V5-KSR, GST-HYP co-expressed, captured via GST-HYP, anti-Myc (MEK) blot, parent: 1. (A western blot detects proteins with antibodies after separation by electrophoresis.)
On to chain 2 AYINIAEWTPDQVTDWIKGLDESMKGYLYEFSKQEIGGRALLNIRPYELENLGMLRIGHQEIVLEAVENLRNFHRHLKNDNLQFMALHVATAAKNLHRELARNHAESTKIDTRILHDITRTIATLKPLVGSLERTPFRKQEMYREYCGNVLKCGLELATIAHRDRFALQPVPAIRQSAERLENLANFVIQDISDPMVLQPASLNLVTLKKRESELGFNIESSYNGIHRVTDIKYNSPAHNSGKIEDGDEIVQINYQTVVGWQHRTVLEHLREALPDVVLTVKKRPKHTKMFGQIYMQPYRLPSKKRNMAARWAAQMPSPRAAFLTLDTEQLATGGTGSAVPDPSKSLSSEKREVLTKANPVSSASDSDSSCSDIPTPTDPKLAAREIRLYYPKPRALLQRRNTICGCEYLSLKNSDLVVPSWHERKPGIGSPTNCDPGSPSIRDKSISFGYGLEMAARPTTCIGIAGDTSTDKARRMFHEARKLKQLTEDSQREFLVDRYKPGVSKVVRFDAKEDYVMKNEKFICNVENTILETFEPIPFADEGDEDA [chain 2 Y75R], for which the ratio to parent is 0.68.

With chain 2 AYINIAEWTPDQVTDWIKGLDESMKGYLYEFSKQEIGGRALLNIRPYELENLGMLRIGHQEIVLEAVENLRNFHYHLKNDNLEFMALHVATAAKNLHRELARNHAESTKIDTRILHDITRTIATLKPLVGSLERTPFRKQEMYREYCGNVLKCGLELATIAHRDRFALQPVPAIRQSAERLENLANFVIQDISDPMVLQPASLNLVTLKKRESELGFNIESSYNGIHRVTDIKYNSPAHNSGKIEDGDEIVQINYQTVVGWQHRTVLEHLREALPDVVLTVKKRPKHTKMFGQIYMQPYRLPSKKRNMAARWAAQMPSPRAAFLTLDTEQLATGGTGSAVPDPSKSLSSEKREVLTKANPVSSASDSDSSCSDIPTPTDPKLAAREIRLYYPKPRALLQRRNTICGCEYLSLKNSDLVVPSWHERKPGIGSPTNCDPGSPSIRDKSISFGYGLEMAARPTTCIGIAGDTSTDKARRMFHEARKLKQLTEDSQREFLVDRYKPGVSKVVRFDAKEDYVMKNEKFICNVENTILETFEPIPFADEGDEDA [chain 2 Q83E], the ratio to parent is 0.04.

chain 2 AYINIAEWTPDQVTDWIKGLDESMKGYLYEFSKQEIGGRALLNIRPYELENLGMLRIGHQEIVLEAVENLRNFHYHLKNDNLQFMALHVATAAKELHRELARNHAESTKIDTRILHDITRTIATLKPLVGSLERTPFRKQEMYREYCGNVLKCGLELATIAHRDRFALQPVPAIRQSAERLENLANFVIQDISDPMVLQPASLNLVTLKKRESELGFNIESSYNGIHRVTDIKYNSPAHNSGKIEDGDEIVQINYQTVVGWQHRTVLEHLREALPDVVLTVKKRPKHTKMFGQIYMQPYRLPSKKRNMAARWAAQMPSPRAAFLTLDTEQLATGGTGSAVPDPSKSLSSEKREVLTKANPVSSASDSDSSCSDIPTPTDPKLAAREIRLYYPKPRALLQRRNTICGCEYLSLKNSDLVVPSWHERKPGIGSPTNCDPGSPSIRDKSISFGYGLEMAARPTTCIGIAGDTSTDKARRMFHEARKLKQLTEDSQREFLVDRYKPGVSKVVRFDAKEDYVMKNEKFICNVENTILETFEPIPFADEGDEDA [chain 2 N95E]: the ratio to parent was 0.94.

With chain 2 AYINIAEWTPDQVTDWIKGLDESMKGYLYEFSKQEIGGRALLNIFPYELENLGMLRIGHQEIVLEAVENLRNFHYHLKNDNLQFMALHVATAAKNLHRELARNHAESTKIDTRILHDITRTIATLKPLVGSLERTPFRKQEMYREYCGNVLKCGLELATIAHRDRFALQPVPAIRQSAERLENLANFVIQDISDPMVLQPASLNLVTLKKRESELGFNIESSYNGIHRVTDIKYNSPAHNSGKIEDGDEIVQINYQTVVGWQHRTVLEHLREALPDVVLTVKKRPKHTKMFGQIYMQPYRLPSKKRNMAARWAAQMPSPRAAFLTLDTEQLATGGTGSAVPDPSKSLSSEKREVLTKANPVSSASDSDSSCSDIPTPTDPKLAAREIRLYYPKPRALLQRRNTICGCEYLSLKNSDLVVPSWHERKPGIGSPTNCDPGSPSIRDKSISFGYGLEMAARPTTCIGIAGDTSTDKARRMFHEARKLKQLTEDSQREFLVDRYKPGVSKVVRFDAKEDYVMKNEKFICNVENTILETFEPIPFADEGDEDA [chain 2 R45F], the ratio to parent worked out at 1.01.

Still in this test, the particulars now being: with Flag-CNK^2–549 [Drosophila]; S2 cells; Flag-CNK2–549, V5-KSR, Myc-MEK, GST-HYP co-expressed; captured via GST-HYP; anti-Myc (MEK) blot; parent: 1.
Take chain 1 MSKNKLNLVLPPVNTEATVAAATVAPTPPFKTPSGTDTHSLLGKPKTSIDALTETLEGLDMGDTERKRIKMFLSQKEKIGELSDEDLEKLGELGSGNGGVVMKVRHTHTHLIMARKLIHLEVKPAIKKQILRELKVLHECNFPHIVGFYGAFYSDGEISICMEYMDGGSLDLILKRAGRIPESILGRITLAVLKGLSYLRDNHAIIHRDVKPSNILVNSSGEIKICDFGVSGQLIDSMANSFVGTRSYMSPERLQGTHYSVQSDIWSLGLSLVEMAIGMYPIPPPNTATLESIFADNAEESGQPTDEPRAMAIFELLDYIVNRPPPKLEHKIFSTEFKDFVDICLKKQPDERADLKTLLSHPWIRKAELEEVDISGWVCKTMDLPPSTPKRNTSPN [chain 1 E323R]: the ratio to parent stood at 0.56.

The same test, now with this note: with Flag-CNK^2–549 [Drosophila]; S2 cells; Flag-CNK2–549, V5-KSR, Myc-MEK, GST-HYP co-expressed; captured via GST-HYP; anti-V5 (KSR) blot; parent: 1.
chain 1 MSKNKLNLVLPPVNTEATVAAATVAPTPPFKTPSGTDTHSLLGKPKTSIDALTETLEGLDMGDTERKRIKMFLSQKEKIGELSDEDLEKLGELGSGNGGVVMKVRHTHTHLIMARKLIHLEVKPAIKKQILRELKVLHECNFPHIVGFYGAFYSDGEISICMEYMDGGSLDLILKRAGRIPESILGRITLAVLKGLSYLRDNHAIIHRDVKPSNILVNSSGEIKICDFGVSGQLIDSMANSFVGTRSYMSPERLQGTHYSVQSDIWSLGLSLVEMAIGMYPIPPPNTATLESIFADNAEESGQPTDEPRAMAIFELLDYIVNRPPPKLEHKIFSTEFKDFVDICLKKQPDERADLKTLLSHPWIRKAELEEVDISGWVCKTMDLPPSTPKRNTSPN [chain 1 E323R]: the ratio to parent stood at 0.66.
